{"source": "patent CN111234012A", "about": "(UNIV TSINGHUA, dated 2020)", "binders": {"B1": {"name": "单克隆抗体B432 (antibody, V domains shown)", "VH": "VQLVQSGGGVVQPGGSLRLSCAASGFIFGDYAMYWVRQAPGKGLEWVSFIGADGATIYYADSVTGRFTISRDNSKNSLFLQMNSLRTEDTAFYYCAKEMGVRDRYYYYAIDVWGQGTTVTVSS", "VL": "EIVLTQSPGTLSLSPGERASLSCRASQSVGGYLAWYQQTPGQAPRLLIYHSSTRATGIPARFSGSGSGTDFTLTISRLEPEDFAVYYCQQRTKWPLTFGGGTKVEIKR", "notes": "also called B432抗体"}}, "key": {"[1]": {"target": "T1, HBs抗原 (GENBANK ACCESSION NO: P30019.1) (乙肝病毒 (hepatitis B virus), UniProt P30019 1-226)", "T1 construct": "Coating antigen of the ELISA (50 ng per well); also called 乙肝病毒小膜蛋白HBs; 乙肝表面抗原", "T1 sequence (P30019 whole entry, one chain of several)": "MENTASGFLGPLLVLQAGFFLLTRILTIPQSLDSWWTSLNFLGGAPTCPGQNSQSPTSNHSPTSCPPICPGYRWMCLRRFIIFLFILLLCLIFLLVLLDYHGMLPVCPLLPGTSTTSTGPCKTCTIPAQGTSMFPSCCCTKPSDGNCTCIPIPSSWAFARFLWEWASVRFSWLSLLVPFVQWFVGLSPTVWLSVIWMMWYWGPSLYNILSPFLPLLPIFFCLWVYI", "test": "ELISA, HBs antigen coated at 50 ng per well, anti-human IgG-HRP, OD450"}, "[2]": {"target": "HBV病毒 (HepAD38细胞上清制备的HBV病毒液)", "test": "cell-based or functional assay"}}, "data": [{"binder": "B1", "values": [{"measurement": "binding result", "setting": "[1]", "value": "binds"}, {"measurement": "HBV neutralisation on HepG2-NTCP cells, HBeAg in supernatant (IC50)", "setting": "[2]", "value": 0.025, "unit": "mg/L"}]}]}
